In patent US20100310549A1 (Bristol-Myers Squibb, published 2010):
One block for each binder: values may come before it.

Legend:
[1] = biological target: T1, mouse vascular endothelial growth factor receptor-2 Fc chimera (Flk-1-Fc) (mouse, UniProt P35918 20-762); assay: BIAcore, Flk-1-Fc immobilised on CM5 chip
T1 construct: bought from R&D Systems; also called mouse VEGF-R2-Fc; Fc part of the bought chimera not given, not described
Method: (§1) The binding kinetics of fibronectin-based scaffold proteins binding proteins to the target was measured using BIAcore 2000 biosensor (Pharmacia Biosensor). Human and mouse VEGF-R2-Fc fusions were immobilized onto a CM5 sensor chip and soluble binding proteins were injected at concentrations ranging from 0 to 100 nM in buffer O (10 mM HEPES, 150 mM NaCl, 0.005% Tween 20, pH 7.4). Sensorgrams were obtained at each concentration and were evaluated using a program, BIA Evaluation 2.0 (BIAcore), to determine the rate constants […] The affinity constant, KD was calculated from the ratio of rate constants koff/kₒₙ.

[2] = biological target: T2, full-length human KDR on CHO-KDR cells (human, UniProt P35968 20-1356); assay: flow cytometry on CHO-KDR cells, anti-His6 detection
T2 construct: whole, on cells; stably transfected CHO-K1 cells
Method: The functionality of KDR and Flk-1 binding molecules in a cell culture model system was evaluated with E. coli produced binding molecules.
Binding of fibronectin-based scaffold protein to cell-surface KDR and Flk-1 was analyzed simultaneously on VEGF-R2-expressing and control cells by flow cytometry. CHO-pcDNA3 cells (control) were released from their dishes with trypsin-EDTA, washed in Dulbecco's PBS without calcium and magnesium (D-PBS⁻; Invitrogen), and stained for 30 minutes at 37° C. with 1.5 μM CMTMR (5-(and-6)-(((4-chloromethyl)benzoyl)amino)-tetramethylrhodamine) (Molecular Probes). The cells were washed in D-PBS⁻ and incubated for a further 30 minutes at 37° C., and then resuspended in blocking buffer (D-PBS710% fetal bovine serum) on ice. CHO-KDR or CHO-Flk cells were treated identically except that CMTMR was omitted. 75,000 of CMTMR-stained CHO-pcDNA3 cells were mixed with an equal number of unstained CHO-KDR or CHO-Flk cells in each well of a V-bottom 96-well plate. All antibodies and fibronectin-based scaffold proteins were diluted in 25 μl/well of blocking buffer, and each treatment was conducted for 1 hour at 4° C. Cell mixtures were stained with His₆-tagged fibronectin-based scaffold proteins, washed twice with cold D-PBS⁻, and then treated with 2.5 μg/ml anti-His₆ MAb (R&D Systems), washed, and stained with 4 μg/ml Alexa Fluor 488-conjugated anti-mouse antibody (Molecular Probes). For cells treated with an anti-KDR mouse monoclonal antibody (Accurate Chemical, Westbury, N.Y.) or an anti-flk-1 goat polyclonal antibody (R&D Systems), the anti-His₆ step was omitted, and antibody binding was detected with the species-appropriate Alexa Fluor 488 conjugated secondary antibody (Molecular Probes). Following staining, cells were resuspended in 200 μl/well D-PBS⁻/1% FBS/1 μg/ml 7-aminoactinomycin D (7-AAD; Molecular Probes) and analyzed by flow cytometry on a FACSCalibur (Becton Dickinson, San Jose, Calif.) equipped with a […].

[3] = biological target: human KDR/EpoR fusion (phKE8) on Ba/F3-KDR cells (human, UniProt P35968 20-764; P19235 251-508, limits assumed); assay: cell-based or functional assay
[4] = biological target: T3, flk-1/EpoR fusion (pmKE2) on CHO-Flk or Ba/F3-Flk cells (mouse; human, UniProt P35918 20-762; P19235 251-508, limits assumed); assay: cell-based or functional assay
[5] = biological target: T3, flk-1/EpoR fusion (pmKE2) on CHO-Flk or …; assay: flow cytometry on CHO-Flk cells, anti-His6 detection
[6] = biological target: VEGFR-2 (KDR) of HUVEC cells (human, UniProt P35968 20-1356); assay: cell-based or functional assay
[7] = biological target: T4, human vascular endothelial growth factor receptor-2 Fc chimera (KDR-Fc) (human, UniProt P35968 20-764); assay: BIAcore, KDR-Fc immobilised on CM5 chip
T4 construct: range 1-764; also called human VEGF-R2-Fc; not shown: human IgG1 Fc
Method: as §1

[8] = biological target: mouse vascular endothelial growth factor receptor-2 Fc chimera (Flk-1-Fc) (mouse) (UniProt P35918); assay: radioactive equilibrium binding
[9] = biological target: T1, mouse vascular endothelial growth …; assay: radioactive equilibrium binding assay, 1 nM Flk-1-Fc, percent bound, average of 3 experiments
[10] = biological target: T5, human vascular endothelial growth factor receptor-2 Fc chimera (KDR-Fc) (human, UniProt P35968 20-764); assay: BIAcore, 20 nM KDR-Fc over immobilized VEGF165 in the presence of the soluble binder; blocked ligand VEGF165
T5 construct: range 1-764; also called human VEGF-R2-Fc; hKDR; not shown: human IgG1 Fc
Method: For inhibition experiments, human VEGF₁₆₅ was immobilized on a surface of CM-5 chip and KDR-Fc was injected at a concentration of 20 nM in the presence of different concentrations of soluble binding proteins ranging from 0 to 100 nM. IC₅₀ was determined at a concentration when only 50% of KDR-Fc binding to the chip was observed.

T3 sequence (P35918 other isoform, or with tags, fused parts or gaps limits assumed, form in doubt): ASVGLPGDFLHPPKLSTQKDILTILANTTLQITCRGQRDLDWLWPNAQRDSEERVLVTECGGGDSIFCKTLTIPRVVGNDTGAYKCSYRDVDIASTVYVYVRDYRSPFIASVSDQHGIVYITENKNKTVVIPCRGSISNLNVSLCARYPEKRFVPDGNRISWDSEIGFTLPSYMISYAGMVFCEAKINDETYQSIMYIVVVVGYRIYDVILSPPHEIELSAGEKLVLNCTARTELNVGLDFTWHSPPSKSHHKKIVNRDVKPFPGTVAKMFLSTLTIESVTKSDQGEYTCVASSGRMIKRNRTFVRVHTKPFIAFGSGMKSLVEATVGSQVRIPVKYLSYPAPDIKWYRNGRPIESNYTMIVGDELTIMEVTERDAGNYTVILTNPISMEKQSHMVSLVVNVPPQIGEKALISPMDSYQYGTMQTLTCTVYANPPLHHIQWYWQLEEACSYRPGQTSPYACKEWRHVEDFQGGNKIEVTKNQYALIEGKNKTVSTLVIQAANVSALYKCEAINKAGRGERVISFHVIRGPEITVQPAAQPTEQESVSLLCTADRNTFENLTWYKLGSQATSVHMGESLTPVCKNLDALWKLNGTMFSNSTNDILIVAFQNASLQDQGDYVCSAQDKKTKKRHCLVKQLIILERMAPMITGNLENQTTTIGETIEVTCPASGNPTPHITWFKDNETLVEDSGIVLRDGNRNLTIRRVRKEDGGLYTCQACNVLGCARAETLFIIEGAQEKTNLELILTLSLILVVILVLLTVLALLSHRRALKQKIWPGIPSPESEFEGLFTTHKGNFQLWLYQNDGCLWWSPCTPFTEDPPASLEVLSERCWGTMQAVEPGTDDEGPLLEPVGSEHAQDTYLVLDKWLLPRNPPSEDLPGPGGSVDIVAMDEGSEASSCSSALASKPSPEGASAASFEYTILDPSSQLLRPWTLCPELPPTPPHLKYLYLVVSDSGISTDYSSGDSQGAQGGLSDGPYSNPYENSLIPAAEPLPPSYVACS
Chain of mouse vascular endothelial growth factor receptor-2 Fc chimera (Flk-1-Fc) (mouse) (P35918 20-762, change not shown): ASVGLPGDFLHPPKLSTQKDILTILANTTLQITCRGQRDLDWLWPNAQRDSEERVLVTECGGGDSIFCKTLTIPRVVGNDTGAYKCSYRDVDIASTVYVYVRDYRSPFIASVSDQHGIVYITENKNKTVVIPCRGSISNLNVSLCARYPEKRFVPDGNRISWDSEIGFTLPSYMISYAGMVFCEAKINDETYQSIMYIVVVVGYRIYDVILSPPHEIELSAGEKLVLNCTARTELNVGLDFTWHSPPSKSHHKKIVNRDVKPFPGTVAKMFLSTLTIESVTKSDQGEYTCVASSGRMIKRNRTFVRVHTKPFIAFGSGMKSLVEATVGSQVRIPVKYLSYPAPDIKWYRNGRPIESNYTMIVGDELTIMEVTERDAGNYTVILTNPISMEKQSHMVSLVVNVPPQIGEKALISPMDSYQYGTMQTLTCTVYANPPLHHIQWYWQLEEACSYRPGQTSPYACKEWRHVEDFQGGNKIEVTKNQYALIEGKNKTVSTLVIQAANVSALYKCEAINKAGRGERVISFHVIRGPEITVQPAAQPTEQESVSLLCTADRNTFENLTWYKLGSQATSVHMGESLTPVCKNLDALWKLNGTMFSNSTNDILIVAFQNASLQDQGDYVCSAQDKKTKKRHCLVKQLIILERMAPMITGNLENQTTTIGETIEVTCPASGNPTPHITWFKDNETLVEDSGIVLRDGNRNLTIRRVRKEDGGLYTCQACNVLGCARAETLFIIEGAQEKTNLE
T1 sequence (P35918 20-762, change not shown): as above

B1: E19, E. coli-expressed, His6 (designed binder)
chain: EVVAATPTSLLISWRHPHFPTRYYRITYGETGGNSPVQEFTVPLQPPTATISGLKPGVDYTITGYAVTVERNGRHLMTPISINYRTEIDKPSQHHHHHH
notes: soluble E. coli form; N-terminal residues added for expression not described
Kd [1]: 0.34 nM | koff [1]: 0.000223 s⁻¹ | kon [1]: 660000 M⁻¹ s⁻¹ | EC50 [2]: 7.6 nM | Inhibition of VEGF-induced proliferation, Ba/F3-KDR (IC50, nM) [3]: 12.3 nM | Inhibition of VEGF-induced proliferation, Ba/F3-Flk (IC50, nM) [4]: 5.8 nM | EC50 [5]: 5.3 nM | Inhibition of VEGF-induced proliferation of HUVEC cells (IC50, nM) [6]: 11.8 nM | Kd [7]: 0.06 nM | koff [7]: 1.7e-05 s⁻¹ | kon [7]: 300000 M⁻¹ s⁻¹

B8: K1 (designed binder)
chain: EVVAATPTSLLISWRHPHFPTRYYRITYGETGGNSPVQEFTVPLQPPTATISGLKPGVDYTITGYAVTMGLYGHELLTPISINYRT
notes: Del 1-8; in vitro translated, Flag tag
binding result [9]: no binding (tested: 1 nM Flk-1-Fc)

B9: K9 (designed binder)
chain: EVVAATPTSLLISWRHPHFPTRYYRITYGETGGNSPVQEFTVPLQPPTATISGLKPGVDYTITGYAVTFGLYGKELLIPISINYRT
notes: as for B8
binding result [9]: no binding (tested: 1 nM Flk-1-Fc)

B10: K13 (designed binder)
chain: EVVAATPTSLLISWRHPHFPTRYYRITYGETGGNSPVQEFTVPLQPPTATISGLKPGVDYTITGYAVTLALKGHELLTPISINYRT
notes: as for B8
binding result [9]: no binding (tested: 1 nM Flk-1-Fc)

B14: K15 (designed binder)
chain: EVVAATPTSLLISWRHPHFPTRYYRITYGETGGNSPVQEFTVPLQPPTATISGLKPGVDYTITGYAVTEVHHDREIKTPISINYRT
notes: as for B8
binding result [9]: no binding (tested: 1 nM Flk-1-Fc)

B16: M5FL, E. coli-expressed, His6 (designed binder)
chain: VSDVPRDLEVVAATPTSLLISWRHPHFPTRYYRITYGETGGNSPVQEFTVPLQPPLATISGLKPGVDYTITVYAVTKERNGRELFTPISINYRTEIDKPSQHHHHHH
notes: soluble E. coli form with Ser100
Kd [1]: 2.1 nM | koff [1]: 0.000582 s⁻¹ | kon [1]: 280000 M⁻¹ s⁻¹ | Inhibition of VEGF-induced proliferation, Ba/F3-KDR (IC50, nM) [3]: 3.9 nM | Inhibition of VEGF-induced proliferation, Ba/F3-Flk (IC50, nM) [4]: 5.1 nM | Inhibition of VEGF-induced proliferation of HUVEC cells (IC50, nM) [6]: 8.5 nM | Kd [7]: 0.89 nM | koff [7]: 9.2e-05 s⁻¹ | kon [7]: 100000 M⁻¹ s⁻¹

B17: VR28, E. coli-expressed, His6 (designed binder)
chain: VSDVPRDLEVVAATPTSLLISWRHPHFPTRYYRITYGETGGNSPVQEFTVPLQPPTATISGLKPGVDYTITGYAVTVAQNDHELITPISINYRTEIDKPSQHHHHHH
notes: soluble E. coli form; N-terminal Met not described
Kd [7]: 13 nM | koff [7]: 0.00034 s⁻¹ | kon [7]: 30000 M⁻¹ s⁻¹

B18: VR28 (designed binder)
chain: VSDVPRDLEVVAATPTSLLISWRHPHFPTRYYRITYGETGGNSPVQEFTVPLQPPTATISGLKPGVDYTITGYAVTVAQNDHELITPISINYRT
notes: 10Fn3 variant, WT N-terminus; also called VR28 (I69T)
IC50 (read off the curve) [10]: ~20 nM

More lines, now with the values ahead:

Kd [1]: 0.37 nM | koff [1]: 0.000288 s⁻¹ | kon [1]: 790000 M⁻¹ s⁻¹ | EC50 [2]: 2.3 nM | Inhibition of VEGF-induced proliferation, Ba/F3-KDR (IC50, nM) [3]: 10 nM | Inhibition of VEGF-induced proliferation, Ba/F3-Flk (IC50, nM) [4]: 4.7 nM | EC50 [5]: 0.6 nM | Inhibition of VEGF-induced proliferation of HUVEC cells (IC50, nM) [6]: 8.4 nM | Kd [7]: 0.19 nM | koff [7]: 7e-05 s⁻¹ | kon [7]: 360000 M⁻¹ s⁻¹
B2: E29, E. coli-expressed, His6 (designed binder)
chain: EVVAATPTSLLISWRHPHFPTRYYRITYGETGGNSPVQEFTVPLQPPTATISGLKPGVDYTITGYAVTVERNGRVLMTPISINYRTEIDKPSQHHHHHH
notes: as for B1

Kd [1]: 0.33 nM | koff [1]: 0.000195 s⁻¹ | kon [1]: 600000 M⁻¹ s⁻¹ | EC50 [2]: 4.2 nM | Inhibition of VEGF-induced proliferation, Ba/F3-KDR (IC50, nM) [3]: 5.4 nM | Inhibition of VEGF-induced proliferation, Ba/F3-Flk (IC50, nM) [4]: 2.4 nM | EC50 [5]: 0.9 nM | Inhibition of VEGF-induced proliferation of HUVEC cells (IC50, nM) [6]: 12.8 nM | Kd [7]: 0.46 nM | koff [7]: 0.000121 s⁻¹ | kon [7]: 260000 M⁻¹ s⁻¹
B3: E18, E. coli-expressed, His6 (designed binder)
chain: EVVAATPTSLLISWRHPHFPTRYYRITYGETGGNSPVQEFTVPLQPPTATISGLKPGVDYTITGYAVTVERNGRELNTPISINYRTEIDKPSQHHHHHH
notes: as for B1

Kd [1]: 2.02 nM | koff [1]: 0.00136 s⁻¹ | kon [1]: 670000 M⁻¹ s⁻¹ | Kd [7]: 0.08 nM | koff [7]: 6.7e-05 s⁻¹ | kon [7]: 890000 M⁻¹ s⁻¹
B4: E6, E. coli-expressed, His6 (designed binder)
chain: EVVAATPTSLLISWRHPHFPTRYYRITYGETGGNSPVQEFTVPLQPPTATISGLKPGVDYTITGYAVTDGWNGRLLSIPISINYRTEIDKPSQHHHHHH
notes: as for B1

Binding to 1 nM Flk-1, % [8]: 1%
B5: EGE11 (FG loop …) (designed binder)
chain: EVVAATPTSLLISWRHPHFPTRYYRITYGETGGNSPVQEFTVPLQPPTATISGLKPGVDYTITGYAVTMGKNDRELLTPISINYRT

Binding to 1 nM Flk-1, % [8]: 2%
B6: F6 (designed binder)
chain: EVVAATPTSLLISWRHPHFPTRYYRITYGETGGNSPVQEFTVPLQPPTATISGLKPGVDYTITGYAVTVEQNGRVLMTPISINYRT

Binding to 1 nM Flk-1, % [8]: 1%
B7: F10 (Table 2) (designed binder)
chain: EVVAATPTSLLISWRHPHFPTRYYRITYGETGGNSPVQEFTVPLQPPTATISGLKPGVDYTITGYAVTMAPNGRELLTPISINYRT

binding result [9]: no binding (tested: 1 nM Flk-1-Fc)
B11: K10 (designed binder)
chain: EVVAATPTSLLISWRHPHFPTRYYRITYGETGGNSPVQEFTVPLQPPTATISGLKPGVDYTITGYAVTTGPNDRLLFVPISINYRT
notes: as for B8

binding result [9]: no binding (tested: 1 nM Flk-1-Fc)
B12: K6 (designed binder)
chain: EVVAATPTSLLISWRHPHFPTRYYRITYGETGGNSPVQEFTVPLQPPTATISGLKPGVDYTITGYAVTDGKDGRVLLTPISINYRT
notes: as for B8

binding result [9]: no binding (tested: 1 nM Flk-1-Fc)
B13: K12 (designed binder)
chain: EVVAATPTSLLISWRHPHFPTRYYRITYGETGGNSPVQEFTVPLQPPTATISGLKPGVDYTITGYAVTDVYNDHEIKTPISINYRT
notes: as for B8

binding result [9]: no binding (tested: 1 nM Flk-1-Fc)
B15: K14 (designed binder)
chain: EVVAATPTSLLISWRHPHFPTRYYRITYGETGGNSPVQEFTVPLQPPTATISGLKPGVDYTITGYAVTREENDHELLIPISINYRT
notes: as for B8
